Test results taken from PMC5118791, “Beyond Antibodies: Development of a Novel Protein Scaffold Based on Human Chaperonin 10” (Scientific Reports, 2016).
Each block holds one binder with its values, some of them ahead of it.

How the values were obtained:
[1] = target: T1, recombinant Factor VIIa (rFVIIa); assay: BLI; Octet Red, Ni-NTA biosensors, 37 °C, 1000 rpm; association 180 sec, dissociation 10 min; 1:1 model, global fit; the legend of Figure 4b says rFVIIa was immobilised; details: both partners purified
T1 construct: rFVIIa (NovoSeven RT); no His tag on rFVIIa is stated anywhere; also called NovoSeven RT; source: bought: NovoSeven RT (named for the ELISA)
T1 sequence (P08709 whole entry): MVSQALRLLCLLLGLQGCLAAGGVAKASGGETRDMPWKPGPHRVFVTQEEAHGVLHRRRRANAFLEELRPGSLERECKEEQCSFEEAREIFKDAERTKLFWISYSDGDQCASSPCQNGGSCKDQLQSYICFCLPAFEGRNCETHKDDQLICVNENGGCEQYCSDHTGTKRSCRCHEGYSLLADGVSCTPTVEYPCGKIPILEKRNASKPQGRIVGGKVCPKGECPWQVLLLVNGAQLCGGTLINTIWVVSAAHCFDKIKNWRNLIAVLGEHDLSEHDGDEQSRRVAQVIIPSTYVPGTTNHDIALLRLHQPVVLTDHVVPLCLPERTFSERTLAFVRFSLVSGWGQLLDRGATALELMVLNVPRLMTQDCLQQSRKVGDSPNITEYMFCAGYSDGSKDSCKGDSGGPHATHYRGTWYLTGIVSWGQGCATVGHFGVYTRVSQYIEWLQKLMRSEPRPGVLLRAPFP

[2] = target: the molecule itself; assay: SEC; analytical SE-HPLC, TSK G3000SWXL, 0.1 M phosphate pH 7.8, 0.2 M NaCl, 1 mg/mL, 0.8 mL/min, 25 °C; calibrated with BioRad standards
[3] = target: T1, recombinant Factor VIIa (rFVIIa); assay: cell-based or functional assay

Kd [1]: 5.5 nM
B1: CE76-E5 (hCpn10 scaffold displaying the E-76 peptide with E5 linkers) (designed binder)
chain: AGQAFRKFLPLFDRVLVERSAAETVALCDDPRVDRWYCQFVEGEKSQGKVLQATVVAVGSGSKGKGGEIQPVSVKVGDKVLLPEYGGTKVVLDDKDYFLFRDGDILGKYVD
stoichiometry N [2]: 7

inhibition of FX activation by TF-FVIIa (chromogenic substrate S-2765), IC50 [3]: 1.5 nM | inhibition of amidolytic activity of FVIIa (Chromozym t-PA) in the presence of TF, IC50 [3]: 6.8 nM | inhibition of amidolytic activity of FVIIa (Chromozym t-PA) without TF, IC50 [3]: 8.4 nM | prothrombin time (PT) in citrated human plasma, 0.001-100 μM, fold prolongation over normal clotting time [3]: 7 fold | Kd [1]: 3 nM
B2: CE76-P1 (hCpn10 scaffold displaying the E-76 peptide with P1 linkers) (designed binder)
chain: AGQAFRKFLPLFDRVLVERSAAAPALCDDPRVDRWYCQFVEGAAPGKVLQATVVAVGSGSKGKGGEIQPVSVKVGDKVLLPEYGGTKVVLDDKDYFLFRDGDILGKYVD
stoichiometry N [2]: 7
